Changes are numbered by the printed parent chain.
Key:
BANP BEN WT = molecular target: T1, BANP BEN WT (human, UniProt Q8N9N5 205-325); assay: ITC; text gives 2.5 uM; ITC: 20 mM Tris pH 7.5, 200 mM NaCl, 2 mM beta-mercaptoethanol, 20 C; EMSA: 20 mM Tris pH 7.0, 200 mM NaCl, 2 mM DTT, 4 C, 1.2% agarose in TAE; conditions: protein: recombinant; tags: His-SUMO or His-MBP, cleaved; chain copies: 2; blunt, self-complementary
T1 sequence: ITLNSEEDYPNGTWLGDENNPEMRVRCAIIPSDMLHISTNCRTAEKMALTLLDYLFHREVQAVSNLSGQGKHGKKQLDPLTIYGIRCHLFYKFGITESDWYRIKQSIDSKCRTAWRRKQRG

BANP full-length WT = molecular target: T2, BANP full-length WT (human, UniProt Q8N9N5 1-519); assay: ITC; ITC: 20 mM Tris pH 7.5, 200 mM NaCl, 2 mM beta-mercaptoethanol, 20 C; EMSA: 20 mM Tris pH 7.0, 200 mM NaCl, 2 mM DTT, 4 C, 1.2% agarose in TAE; conditions: protein: recombinant; tags: His-SUMO or His-MBP, cleaved; chain copies: 4; blunt, self-complementary
T2 sequence: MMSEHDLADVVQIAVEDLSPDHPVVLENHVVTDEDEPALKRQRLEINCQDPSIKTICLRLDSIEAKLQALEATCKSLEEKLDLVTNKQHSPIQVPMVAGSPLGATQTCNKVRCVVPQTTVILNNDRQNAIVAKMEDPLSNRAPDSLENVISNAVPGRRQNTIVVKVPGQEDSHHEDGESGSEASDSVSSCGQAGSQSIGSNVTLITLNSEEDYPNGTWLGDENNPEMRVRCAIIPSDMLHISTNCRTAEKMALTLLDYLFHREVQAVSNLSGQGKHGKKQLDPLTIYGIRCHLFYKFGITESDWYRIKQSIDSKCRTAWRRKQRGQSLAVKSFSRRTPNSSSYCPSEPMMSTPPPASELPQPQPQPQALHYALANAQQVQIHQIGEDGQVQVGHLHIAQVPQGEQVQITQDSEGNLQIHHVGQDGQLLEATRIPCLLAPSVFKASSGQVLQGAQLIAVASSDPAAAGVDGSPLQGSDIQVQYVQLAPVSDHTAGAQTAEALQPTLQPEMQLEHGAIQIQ

BANP BEN K278A = molecular target: T3, BANP BEN K278A (human, UniProt Q8N9N5 205-325, K278A); assay: as above; conditions: protein: recombinant; tags: His-SUMO or His-MBP, cleaved; chain copies: 2; blunt, self-complementary
T3 sequence: T1 sequence with K74A

BANP BEN K314A = molecular target: T4, BANP BEN K314A (human, UniProt Q8N9N5 205-325, K314A); assay: as above; conditions: protein: recombinant; tags: His-SUMO or His-MBP, cleaved; chain copies: 2; blunt, self-complementary
T4 sequence: T1 sequence with K110A

BANP BEN S313A = molecular target: T5, BANP BEN S313A (human, UniProt Q8N9N5 205-325, S313A); assay: as above; conditions: protein: recombinant; tags: His-SUMO or His-MBP, cleaved; chain copies: 2; blunt, self-complementary
T5 sequence: T1 sequence with S109A

BANP BEN-DBD = molecular target: T6, BANP BEN-DBD (human, UniProt Q8N9N5 205-519); assay: as above; conditions: protein: recombinant; tags: His-SUMO or His-MBP, cleaved; blunt, self-complementary
T6 sequence: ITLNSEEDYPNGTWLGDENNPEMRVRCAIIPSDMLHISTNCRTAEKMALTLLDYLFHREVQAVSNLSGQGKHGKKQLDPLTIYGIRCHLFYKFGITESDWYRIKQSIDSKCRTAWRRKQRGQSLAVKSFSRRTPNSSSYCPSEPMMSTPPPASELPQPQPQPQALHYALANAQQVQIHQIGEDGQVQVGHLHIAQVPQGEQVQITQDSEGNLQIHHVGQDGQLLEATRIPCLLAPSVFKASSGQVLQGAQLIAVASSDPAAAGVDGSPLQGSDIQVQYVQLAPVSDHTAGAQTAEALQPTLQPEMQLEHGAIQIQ

BANP BEN S310A = molecular target: T7, BANP BEN S310A (human, UniProt Q8N9N5 205-325, S310A); assay: as above; conditions: protein: recombinant; tags: His-SUMO or His-MBP, cleaved; chain copies: 2; blunt, self-complementary
T7 sequence: T1 sequence with S106A

B1: 12-CGCG (dsDNA)
DNA 1: ATCTCGCGAGAT
DNA 2: ATCTCGCGAGAT
Kd (BANP BEN WT): 2600 ± 400 nM
Kd (BANP full-length WT): 3.4 ± 0.6 µM
Kd (BANP BEN K278A): 35.6 ± 4.1 µM
Kd (BANP BEN K314A): 25.2 ± 3.8 µM
Kd (BANP BEN S313A): 7.9 ± 1.1 µM
Kd (BANP BEN-DBD): 3.1 ± 0.3 µM
Kd (BANP BEN S310A): 12.8 ± 0.9 µM
